This note sets out measurements from patent publication US20180030127A1 (APRILBIO, published 2018).

Test [1] has as its target T1, mouse serum albumin (mouse, UniProt P07724 25-608).
T1 construct: Bought protein; also called MSA; mouse SA
Nature of the test: biolayer interferometry (Octet RED), SL335 on AR2G biosensor, MSA in solution, pH 6; the filing calls the data unreliable; pH 6; left out of Table 6 for lack of reliability. How it is done: (§1) Real-time binding assays between the purified SL335 and the antigens (human SA, rat SA or mouse SA) were performed using biolayer interferometry with an Octet RED system (ForteBio, Menlo park, Calif., USA) as previously described except that AR2G (Amine Reactive Second-Generation) sensors were used (Costin et al., (2013) J Virol. 87, 52-66). Briefly, the predetermined concentration of SL335 was coupled to kinetics grade AR2G biosensors, and unbound Fab fragments were removed from the surfaces of the sensors by incubating in the kinetics buffer […]. […] The binding and dissociation kinetics were calculated using the Octet QK software package, which fit the observed binding curves to a 1:1 binding model to calculate the association rate constants. The association and dissociation rate constants were calculated using at least three different concentrations of human SA, rat SA or mouse SA. The equilibrium dissociation constants were calculated as the kinetic dissociation rate constant divided by the kinetic association rate constant.
A general note: In BLI a coated tip is dipped into the sample, and binding shifts an interference pattern.

Test [2] deals with T1, mouse serum albumin. The experiment in a line: biolayer interferometry (Octet RED), SL335 on AR2G biosensor, MSA in solution, pH 7.4; the filing calls the data unreliable; pH 7.4; left out of Table 6 for lack of reliability. How it is done: as §1
Since SL335 was the best binder among four anti-human SA Fab clones, its cross-reactivity was further analyzed by ELISA. […]

Test [3] deals with T2, human serum albumin (human, UniProt P02768 25-609).
T2 construct: Bought protein; also called HSA; human SA
Nature of the test: ELISA, purified soluble Fab on coated HSA, pH 7.4; human SA, pH 7.4. How it is done: (§2) For the monoclonal phage ELISA, the recombinant phage was obtained from positive E. coli clones by phage rescue, and ˜10⁸ CFU/well were added to MaxiSorb ELISA plates (Nunc, Roskilde, Denmark) that were coated with 5 μg/ml HSA, RSA, MSA or BSA. The phage was allowed to bind to the antigens either at pH 6 or at pH 7.4 for 1 h at 37° C. A goat anti-human kappa L Ab-conjugated with HRPO (Sigma-Aldrich) was used as a secondary antibody. The binding signals were visualized with a TMB substrate (BD Science, San Jose, Calif., USA), and the absorbance at 450 nm was measured using an ELISA reader (Bio-Rad, Hercules, Calif., USA). The data represent the average of three experiments standard deviation. For the conventional ELISA, the various antigens [human SA, rat SA, mouse SA, monkey SA (Alpha diagnositic Intl., San Antonio, Tex., USA), canine SA (CUSABIO, Wuhan, Hubei, China). rabbit SA (Sigma-Aldrich), epidermal growth factor receptor (EGFR) (R&D systems, Minneapolis, Minn., USA), epithelial cell adhesion molecule (EpCAM) (R&D systems), IL-15 receptor a (IL-15Ra) (R&D systems), IL-10 (eBioscience, San Diego, Calif., USA), CD16a (R&D systems), c-MET (Sinobiological, Beijing, China)] at 5 μg/ml concentrations were immobilized on the microtiter plates, and the Fab molecules were allowed to bind to the antigens, and detected as above. […]
Background: In an ELISA, binding on a coated surface is turned into a signal by an enzyme label.

In test [4] the target is T2, human serum albumin. The experiment in a line: ELISA, purified soluble Fab, pH 7.4. How it is done:
as §2

Test [5] deals with T2, human serum albumin. The experiment in a line: ELISA, purified soluble Fab, pH 6. How it is done: as §2
Test [6] deals with T3, bovine serum albumin (bovine, UniProt P02769 25-607).
T3 construct: also called BSA; bovine SA
Nature of the test: monoclonal phage ELISA at pH 6, antigen coated at 5 ug/ml, anti-human kappa-HRPO, A450. How it is done: For the monoclonal phage ELISA, the recombinant phage was obtained from positive E. coli clones by phage rescue, and ˜10⁸ CFU/well were added to MaxiSorb ELISA plates (Nunc, Roskilde, Denmark) that were coated with 5 μg/ml HSA, RSA, MSA or BSA. The phage was allowed to bind to the antigens either at pH 6 or at pH 7.4 for 1 h at 37° C. A goat anti-human kappa L Ab-conjugated with HRPO (Sigma-Aldrich) was used as a secondary antibody. The binding signals were visualized with a TMB substrate (BD Science, San Jose, Calif., USA), and the absorbance at 450 nm was measured using an ELISA reader (Bio-Rad, Hercules, Calif., USA). The data represent the average of three experiments standard deviation. For the conventional ELISA, the various antigens [human SA, rat SA, mouse SA, monkey SA (Alpha diagnositic Intl., San Antonio, Tex., USA), canine SA (CUSABIO, Wuhan, Hubei, China). rabbit SA (Sigma-Aldrich), epidermal growth factor receptor (EGFR) (R&D systems, Minneapolis, Minn., USA), epithelial cell adhesion molecule (EpCAM) (R&D systems), IL-15 receptor a (IL-15Ra) (R&D systems), IL-10 (eBioscience, San Diego, Calif., USA), CD16a (R&D systems), c-MET (Sinobiological, Beijing, China)] at 5 μg/ml concentrations were immobilized on the microtiter plates, and the Fab molecules were allowed to bind to the antigens, and detected as above. To determine the concentration of soluble Fab or Fab-hGH fusion proteins, a sandwich ELISA was performed using a mouse anti-human IgG Fd mAb (AprilBio) as a capturing Ab and the goat anti-human kappa L chain pAb-HRPO conjugated (Sigma-Aldrich) as a detecting antibody. The human Fab fragment (Bethyl, Montgomery, Tex., USA) with a known concentration was used to draw the standard curve. For detecting the hGH domain, T-20, a goat pAb specific for the C-terminus of the hGH (Santacruz Biotechnology, Dallas, Tex., USA) and NYThGH, a mouse mAb specific for full-length hGH (Prospec, East Brunswick, N.J., USA) were used followed by a rabbit anti-goat IgG pAb-HRPO conjugated (Sigma-Aldrich) or a goat anti-mouse IgG pAb-HRPO conjugated (Sigma-Aldrich), respectively as a secondary antibody. A goat anti-human GCSF pAb (R&D Systems) was used to detecting the G-CSF domain, and a rabbit anti-human IFN-β pAb (PEPROTECH, Rocky Hill, USA) was used to detect the IFN-β domain.

Test [7] concerns the target T2, human serum albumin. Nature of the test: ELISA, purified soluble Fab on coated HSA, pH 6; human SA, pH 6. How it is done:
as §2

The target of test [8] is T4, rat serum albumin (rat, UniProt P02770 25-608).
T4 construct: Bought protein; also called RSA; rat SA
Nature of the test: ELISA, purified soluble Fab on coated RSA, pH 6; rat SA, pH 6. How it is done:
as §2

Test [9] addresses T4, rat serum albumin. Nature of the test: ELISA, purified soluble Fab on coated RSA, pH 7.4; rat SA, pH 7.4. How it is done: as §2
For test [10], the target named is T2, human serum albumin. The experiment in a line: ELISA, purified soluble Fab on coated HSA.

T4 sequence (P02770 25-608 limits assumed): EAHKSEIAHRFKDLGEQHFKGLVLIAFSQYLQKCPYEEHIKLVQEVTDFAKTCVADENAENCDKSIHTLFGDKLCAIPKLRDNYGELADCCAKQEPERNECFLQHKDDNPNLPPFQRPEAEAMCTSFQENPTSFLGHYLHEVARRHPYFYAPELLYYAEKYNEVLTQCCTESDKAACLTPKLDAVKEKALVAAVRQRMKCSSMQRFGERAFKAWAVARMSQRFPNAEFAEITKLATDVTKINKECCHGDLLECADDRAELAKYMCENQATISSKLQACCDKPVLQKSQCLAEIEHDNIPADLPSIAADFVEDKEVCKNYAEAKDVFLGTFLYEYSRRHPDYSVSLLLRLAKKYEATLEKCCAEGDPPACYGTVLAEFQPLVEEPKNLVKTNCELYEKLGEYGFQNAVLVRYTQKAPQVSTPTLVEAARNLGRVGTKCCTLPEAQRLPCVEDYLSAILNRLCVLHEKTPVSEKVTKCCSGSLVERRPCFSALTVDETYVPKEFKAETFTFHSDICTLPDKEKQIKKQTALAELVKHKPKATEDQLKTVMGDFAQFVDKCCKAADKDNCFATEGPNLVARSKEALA
T1 sequence (P07724 25-608 limits assumed): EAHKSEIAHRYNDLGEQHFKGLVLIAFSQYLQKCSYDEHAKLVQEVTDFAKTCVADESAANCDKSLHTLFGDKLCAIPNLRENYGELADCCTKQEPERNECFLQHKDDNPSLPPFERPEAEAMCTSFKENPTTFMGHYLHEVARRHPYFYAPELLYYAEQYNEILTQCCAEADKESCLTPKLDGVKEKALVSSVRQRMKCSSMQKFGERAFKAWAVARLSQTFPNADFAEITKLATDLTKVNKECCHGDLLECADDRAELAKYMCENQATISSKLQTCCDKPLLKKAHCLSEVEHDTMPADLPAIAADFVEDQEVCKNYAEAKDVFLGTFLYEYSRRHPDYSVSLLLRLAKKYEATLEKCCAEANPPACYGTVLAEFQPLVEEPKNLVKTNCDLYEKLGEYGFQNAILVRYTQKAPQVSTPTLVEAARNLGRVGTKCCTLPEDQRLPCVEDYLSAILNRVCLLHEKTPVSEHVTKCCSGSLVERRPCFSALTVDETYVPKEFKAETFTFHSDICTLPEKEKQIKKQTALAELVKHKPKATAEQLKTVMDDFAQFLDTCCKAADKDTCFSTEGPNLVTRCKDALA
T3 sequence (P02769 25-607 limits assumed): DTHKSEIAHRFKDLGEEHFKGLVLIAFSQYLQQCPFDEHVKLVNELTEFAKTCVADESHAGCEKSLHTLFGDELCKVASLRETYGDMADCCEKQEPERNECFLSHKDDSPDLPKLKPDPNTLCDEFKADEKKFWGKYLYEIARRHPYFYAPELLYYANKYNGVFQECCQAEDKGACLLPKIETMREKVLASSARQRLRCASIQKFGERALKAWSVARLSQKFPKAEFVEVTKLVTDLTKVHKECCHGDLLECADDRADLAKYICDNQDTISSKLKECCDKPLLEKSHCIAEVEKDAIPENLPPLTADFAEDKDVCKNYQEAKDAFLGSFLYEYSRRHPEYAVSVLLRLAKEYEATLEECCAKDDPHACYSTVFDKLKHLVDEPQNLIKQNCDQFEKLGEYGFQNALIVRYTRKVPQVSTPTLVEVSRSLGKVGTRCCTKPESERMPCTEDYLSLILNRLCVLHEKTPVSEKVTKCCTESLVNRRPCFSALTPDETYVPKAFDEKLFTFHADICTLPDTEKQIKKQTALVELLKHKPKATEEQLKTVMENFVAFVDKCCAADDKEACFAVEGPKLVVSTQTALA

B1: SL335 (Fab, V domains shown)
VH: QVQLVQSGGGPVKPGGSLRLSCAASGFMFRAYSMNWVRQAPGKGLEWVSSISSSGRYIHYADSVKGRFTISRDNAKNSLYLQMNSLRAEDTAVYYCARETVMAGKALDYWGQGTLVTVSS
VL: ELVLTQSPGTLSLSPGETATLSCRASQSVGSNLAWYQQKPGQAPRLLIYGASTGATGVPARFSGSRSGTDFTLTITSLQPEDFATYYCQQYYSFLAKTFGQGTQLEIKR
notes: Human anti-serum albumin Fab in the classic form (VH+CH1 with Cys233, VL+CLk with Cys214); tested on phage and as soluble Fab purified from E. coli; also called SL335wt; SL335 Fab
For the molecule B1, the Kd (usually the equilibrium constant for the complex coming apart) in test [1] is about 10 µM; in test [2] it was about 1.6 µM. Moreover, the concentration for a half-maximal effect (EC50) (commonly the concentration at which the effect is half-maximal) in [3] was 0.04 µg/mL; in test [7], 0.02 µg/mL; in [8], 0.4 µg/mL; in [9], 0.16 µg/mL. Also, in [4], the “fold stronger binding than to rat SA at pH 7.4” value is 4 fold. Further, the “fold stronger binding than to rat SA at pH 6” value in test [5] came out at 20 fold. Further, the binding result in test [6] is reported as “no binding”. Moreover, the “fold stronger binding at pH 6 than at pH 7.4” value in test [10] amounted to 2 fold.
